Laboratory results: patent US20050049195A1

Target: Wnt proteins
Assay: cell-based or functional assay

percent of injection sites with correct anterior turns of post-crossing commissural axons (open-book explant, collagen gel) [%]	Substance
11	Mouse sFRP1 (secreted Frizzled-related protein 1) (from UniProt Q8C4U3 32-314)
25	Mouse sFRP2 (secreted Frizzled-related protein 2), Myc epitope tagged (from UniProt P97299 25-295)
25	Mouse sFRP3 (secreted Frizzled-related protein 3), Myc epitope tagged (from UniProt P97401 33-323)
